Assay results from PMC3897721, “Structure of Utp21 Tandem WD Domain Provides Insight into the Organization of the UTPB Complex Involved in Ribosome Synthesis” (PLoS ONE, 2014).

T1: Utp21 1–684 (tandem WD domain, GST-tag cleaved) (yeast (S. cerevisiae), UniProt Q06078 1-684)
T1 construct: The methods say only 'purified as described above' for the protein of the pull-down; also called tandem WD domain of Utp21; source: E. coli BL21(DE3), purified (Glutathione Sepharose, on-bead PreScission cleavage, Superdex 200); not shown: GST, N-terminal, cleaved
T1 sequence (looked up): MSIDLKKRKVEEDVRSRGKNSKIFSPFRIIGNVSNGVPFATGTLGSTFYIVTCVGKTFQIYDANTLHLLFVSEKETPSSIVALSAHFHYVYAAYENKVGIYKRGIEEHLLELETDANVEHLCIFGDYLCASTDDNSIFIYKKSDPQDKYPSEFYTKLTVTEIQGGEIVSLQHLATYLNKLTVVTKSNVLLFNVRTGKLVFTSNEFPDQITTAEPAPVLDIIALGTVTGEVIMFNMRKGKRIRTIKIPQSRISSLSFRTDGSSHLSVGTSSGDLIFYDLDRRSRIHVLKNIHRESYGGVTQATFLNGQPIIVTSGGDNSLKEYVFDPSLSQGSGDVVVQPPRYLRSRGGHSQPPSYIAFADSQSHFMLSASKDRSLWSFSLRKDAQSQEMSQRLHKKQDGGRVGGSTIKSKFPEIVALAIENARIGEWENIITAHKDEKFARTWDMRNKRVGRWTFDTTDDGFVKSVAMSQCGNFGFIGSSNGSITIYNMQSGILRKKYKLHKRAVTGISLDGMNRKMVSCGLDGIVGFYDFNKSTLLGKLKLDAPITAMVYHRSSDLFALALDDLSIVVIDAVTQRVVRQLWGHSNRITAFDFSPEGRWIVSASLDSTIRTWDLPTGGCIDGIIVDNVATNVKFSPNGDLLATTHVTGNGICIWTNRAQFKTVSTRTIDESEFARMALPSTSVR

B1: His6-Smt3-Utp18 100–190 (domain or fragment, yeast (S. cerevisiae), UniProt P40362 100-190, looked up)
chain: EDTMDVDDEDDSSSDDYSEDSEEAAWIDSDDEKIKVPILVTNKTKKLRTSYNESKINGVHYINRLRSQFEKIYPRPKWVDDESDSELDDEE
notes: Utp18, yeast (S. cerevisiae), residues 100–190; source: expressed from pET28a, purified (HisTrap and Q chromatography); not shown: His6, N-terminal, kept; Smt3, N-terminal, kept
B2: His6-Smt3-Utp18 100–139 (domain or fragment, yeast (S. cerevisiae), UniProt P40362 100-139, looked up)
chain: EDTMDVDDEDDSSSDDYSEDSEEAAWIDSDDEKIKVPILV
notes: Utp18, yeast (S. cerevisiae), residues 100–139; source: expressed from pET28a, purified (HisTrap and Q chromatography); not shown: His6, N-terminal, kept; Smt3, N-terminal, kept
B3: His6-Smt3-Utp18 139–190 (domain or fragment, yeast (S. cerevisiae), UniProt P40362 139-190, looked up)
chain: VTNKTKKLRTSYNESKINGVHYINRLRSQFEKIYPRPKWVDDESDSELDDEE
notes: Utp18, yeast (S. cerevisiae), residues 139–190; source: expressed from pET28a, purified (HisTrap and Q chromatography); not shown: His6, N-terminal, kept; Smt3, N-terminal, kept

Each binder was assayed against T1, Utp21 1–684 (tandem WD domain, GST-tag …) (assay: pull-down; His6-Smt3-tagged Utp18 fragments (0.95 nmol) incubated with Utp21 1–684 (1.9 nmol) 2 h at 4°C, bound to Ni Sepharose beads; washed with 25 mM Tris-HCl pH 7.6, 500 mM NaCl, 10 mM imidazole; SDS-PAGE, Coomassie). Details: both partners purified.
B1: binds.
B2: binds.
B3: binds.
